Experimental data published in the supplement of paper PMC11316812.
± gives the standard deviation of the averaged measurements.

Assays:
MCF7 = test: percentage of EdU-negative (G0-arrested) nuclei per well, 72 h; higher = more G0 arrest; conditions: reference: sequence is the full UniProt precursor, the tested protein was the secreted form or ectodomain
hTERT-HMEC = test: as above; conditions: reference: sequence is the full UniProt precursor, the tested protein was the secreted form or ectodomain
[1] = protein concentration 0.0225 µM
[2] = protein concentration 0.00925 µM
[3] = protein concentration 0.0925 µM
[4] = protein concentration 0.01175 µM
[5] = protein concentration 0.1175 µM
[6] = protein concentration 0.02372 µM
[7] = protein concentration 0.2372 µM
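Note: secreted proteins added to cultured cells, EdU pulse at the end, nuclei found by Hoechst imaging, EdU status from nuclear versus surrounding ring intensity ratio, PBS as neutral control.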

MKLPLLLALLFGAVSALHLRSETSTFETPLGAKTLPEDEETPEQEMEETPCRELEEEEEWGSGSEDASKKDGAVESISVPDMVDKNLTCPEEEDTVKVVGIPGCQTCRYLLVRSLQTFSQAWFTCRRCYRGNLVSIHNFNINYRIQCSVSALNQGQVWIGGRITGSGRCRRFQWVDGSRWNFAYWAAHQPWSRGGHCVALCTRGGHWRRAHCLRRLPFICSY
percentage of EdU-negative (MCF7; [1]): 26.5 ± 0.76%
percentage of EdU-negative (MCF7; protein concentration 0.225 µM): 29 ± 0.95%
percentage of EdU-negative (hTERT-HMEC; [1]): 5.28 ± 0.63%
percentage of EdU-negative (hTERT-HMEC; protein concentration 0.225 µM): 4.45 ± 0.14%

MWVLGIAATFCGLFLLPGFALQIQCYQCEEFQLNNDCSSPEFIVNCTVNVQDMCQKEVMEQSAGIMYRKSCASSAACLIASAGYQSFCSPGKLNSVCISCCNTPLCNGPRPKKRGSSASALRPGLRTTILFLKLALFSAHC [Q8N2G4]
percentage of EdU-negative (MCF7; [1]): 25.13 ± 0.22%
percentage of EdU-negative (MCF7; protein concentration 0.225 µM): 25.1 ± 1.1%
percentage of EdU-negative (hTERT-HMEC; [1]): 5.36 ± 1.2%
percentage of EdU-negative (hTERT-HMEC; protein concentration 0.225 µM): 4.964 ± 0.041%

MSILFYVIFLAYLRGIQGNNMDQRSLPEDSLNSLIIKLIQADILKNKLSKQMVDVKENYQSTLPKAEAPREPERGGPAKSAFQPVIAMDTELLRQQRRYNSPRVLLSDSTPLEPPPLYLMEDYVGSPVVANRTSRRKRYAEHKSHRGEYSVCDSESLWVTDKSSAIDIRGHQVTVLGEIKTGNSPVKQYFYETRCKEARPVKNGCRGIDDKHWNSQCKTSQTYVRALTSENNKLVGWRWIRIDTSCVCALSRKIGRT
percentage of EdU-negative (MCF7; [2]): 25.37 ± 0.049%
percentage of EdU-negative (MCF7; [3]): 27.3 ± 1.8%
percentage of EdU-negative (hTERT-HMEC; [2]): 4.75 ± 0.28%
percentage of EdU-negative (hTERT-HMEC; [3]): 6.72 ± 0.33%

MAGRLLGKALAAVSLSLALASVTIRSSRCRGIQAFRNSFSSSWFHLNTNVMSGSNGSKENSHNKARTSPYPGSKVERSQVPNEKVGWLVEWQDYKPVEYTAVSVLAGPRWADPQISESNFSPKFNEKDGHVERKSKNGLYEIENGRPRNPAGRTGLVGRGLLGRWGPNHAADPIITRWKRDSSGNKIMHPVSGKHILQFVAIKRKDCGEWAIPGGMVDPGEKISATLKREFGEEALNSLQKTSAEKREIEEKLHKLFSQDHLVIYKGYVDDPRNTDNAWMETEAVNYHDETGEIMDNLMLEAGDDAGKVKWVDINDKLKLYASHSQFIKLVAEKRDAHWSEDSEADCHAL [Q9BW91]
percentage of EdU-negative (MCF7; [1]): 26.4 ± 1.5%
percentage of EdU-negative (MCF7; protein concentration 0.225 µM): 26.1 ± 0.32%
percentage of EdU-negative (hTERT-HMEC; [1]): 4.99 ± 0.81%
percentage of EdU-negative (hTERT-HMEC; protein concentration 0.225 µM): 5.67 ± 0.54%

MRLLPLAPGRLRRGSPRHLPSCSPALLLLVLGGCLGVFGVAAGTRRPNVVLLLTDDQDEVLGGMTPLKKTKALIGEMGMTFSSAYVPSALCCPSRASILTGKYPHNHHVVNNTLEGNCSSKSWQKIQEPNTFPAILRSMCGYQTFFAGKYLNEYGAPDAGGLEHVPLGWSYWYALEKNSKYYNYTLSINGKARKHGENYSVDYLTDVLANVSLDFLDYKSNFEPFFMMIATPAPHSPWTAAPQYQKAFQNVFAPRNKNFNIHGTNKHWLIRQAKTPMTNSSIQFLDNAFRKRWQTLLSVDDLVEKLVKRLEFTGELNNTYIFYTSDNGYHTGQFSLPIDKRQLYEFDIKVPLLVRGPGIKPNQTSKMLVANIDLGPTILDIAGYDLNKTQMDGMSLLPILRGASNLTWRSDVLVEYQGEGRNVTDPTCPSLSPGVSQCFPDCVCEDAYNNTYACVRTMSALWNLQYCEFDDQEVFVEVYNLTADPDQITNIAKTIDPELLGKMNYRLMMLQSCSGPTCRTPGVFDPGYRFDPRLMFSNRGSVRTRRFSKHLL
percentage of EdU-negative (MCF7; [4]): 25.19 ± 0.18%
percentage of EdU-negative (MCF7; [5]): 25.1 ± 1.3%
percentage of EdU-negative (hTERT-HMEC; [4]): 5.009 ± 0.019%
percentage of EdU-negative (hTERT-HMEC; [5]): 5.44 ± 1.4%

MRLLPLLRTVLWAAFLGSPLRGGSSLRHVVYWNSSNPRLLRGDAVVELGLNDYLDIVCPHYEGPGPPEGPETFALYMVDWPGYESCQAEGPRAYKRWVCSLPFGHVQFSEKIQRFTPFSLGFEFLPGETYYYISVPTPESSGQCLRLQVSVCCKERKSESAHPVGSPGESGTSGWRGGDTPSPLCLLLLLLLLILRLLRIL
percentage of EdU-negative (MCF7; [1]): 27.2 ± 2.5%
percentage of EdU-negative (MCF7; protein concentration 0.225 µM): 25.7 ± 0.36%
percentage of EdU-negative (hTERT-HMEC; [1]): 5.7 ± 0.081%
percentage of EdU-negative (hTERT-HMEC; protein concentration 0.225 µM): 8.57 ± 0.56%

MISPVLILFSSFLCHVAIAGRTCPKPDDLPFSTVVPLKTFYEPGEEITYSCKPGYVSRGGMRKFICPLTGLWPINTLKCTPRVCPFAGILENGAVRYTTFEYPNTISFSCNTGFYLNGADSAKCTEEGKWSPELPVCAPIICPPPSIPTFATLRVYKPSAGNNSLYRDTAVFECLPQHAMFGNDTITCTTHGNWTKLPECREVKCPFPSRPDNGFVNYPAKPTLYYKDKATFGCHDGYSLDGPEEIECTKLGNWSAMPSCKASCKVPVKKATVVYQGERVKIQEKFKNGMLHGDKVSFFCKNKEKKCSYTEDAQCIDGTIEVPKCFKEHSSLAFWKTDASDVKPC
percentage of EdU-negative (MCF7; [6]): 28.1 ± 0.39%
percentage of EdU-negative (MCF7; [7]): 24.5 ± 3.1%
percentage of EdU-negative (hTERT-HMEC; [6]): 5.35 ± 0.089%
percentage of EdU-negative (hTERT-HMEC; [7]): 5.3 ± 0.56%
